# B1: PSL: Pisum sativum lectin, affinity for fucose α1→6 but not specific (protein, UniProt P02867 31-217; P02867 218-275, looked up)
# Lectin beta chain: TETTSFLITKFSPDQQNLIFQGDGYTTKEKLTLTKAVKNTVGRALYSSPIHIWDRETGNVANFVTSFTFVINAPNSYNVADGFTFFIAPVDTKPQTGGGYLGVFNSAEYDKTTQTVAVEFDTFYNAAWDPSNRDRHIGIDVNSIKSVNTKSWKLQNGEEANVVIAFNAATNVLTVSLTYPNSLEEEN
# Lectin alpha chain: VTSYTLSDVVSLKDVVPEWVRIGFSATTGAEYAAHEVLSWSFHSELSGTSSSKQAADA
# Experiments:
# [1] = FAC binding constant; settings: at 25° C.
# Method: (§1) Details of the FAC method are described in Patent Document 2 filed by some of the present applicants, for example.
# (§2) Binding constants (at 25° C.) of PhoSL, SRL, NSL and LSL belonging to the fucose α1→6 specific lectin for various sugar chains are shown in Tables 2 to 5.
# [2] = FAC binding constant (Table 5 entry); settings: Table 5: sugar chain having no fucose; at 25° C.
# Method: as §1, §2
# [3] = Binding to sugar chains, summary of Tables 2 to 5
# Method: as §1, §2
# The AAL and AOL bind to the fucose α1→6 sugar chains (sugar chains No. 015, 201 to 203, and 401 to 418), as well as to the glycolipid-type sugar chain excluding the fucose α1→6 (sugar chains No. 718, 722, 723, 727, 909, 910 and 933). The LCL and PSL bind to the fucose α1→6 sugar chain, as well as to sugar chain excluding the α1→6 fucose (sugar chains No. 003, and 005 to 014).
# Furthermore, the binding constant of the fucose α1→6 specific lectin is not decreased even if a sialic acid is added to the fucose α1→6 sugar chain (sugar chains No. 601 and 602). In addition, the fucose α1→6 specific lectin also strongly binds to the triple-strand (sugar chains No. 407 to 413) and the four-strand (sugar chains No. 418) of the fucose uα1→6 sugar chain.
# [4] = sugar chain having fucose other than α1→6 fucose
molecule,measurement,setting,value
B1,Binding constant for sugar chain No. 728,[1]; Table 3: sugar chain having fucose other than α1→6 fucose,<1000 M⁻¹
same,Binding constant for sugar chain No. 419,[1]; [4],<1000 M⁻¹
same,Binding constant for sugar chain No. 420,[1]; [4],<1000 M⁻¹
same,Binding constant for sugar chain No. 718,[1]; [4],<1000 M⁻¹
same,Binding constant for sugar chain No. 719,[1]; [4],<1000 M⁻¹
same,Binding constant for sugar chain No. 720,[1]; [4],<1000 M⁻¹
same,Binding constant for sugar chain No. 721,[1]; [4],<1000 M⁻¹
same,Binding constant for sugar chain No. 722,[1]; [4],<1000 M⁻¹
same,Binding constant for sugar chain No. 723,[1]; [4],<1000 M⁻¹
same,Binding constant for sugar chain No. 726,[1]; [4],<1000 M⁻¹
same,Binding constant for sugar chain No. 727,[1]; [4],<1000 M⁻¹
same,Binding constant for sugar chain No. 729,[1]; [4],<1000 M⁻¹
same,Binding constant for sugar chain No. 730,[1]; [4],<1000 M⁻¹
same,Binding constant for sugar chain No. 731,[1]; [4],<1000 M⁻¹
same,Binding constant for sugar chain No. 739,[1]; [4],<1000 M⁻¹
same,Binding constant for sugar chain No. 909,[1]; [4],<1000 M⁻¹
same,Binding constant for sugar chain No. 910,[1]; [4],<1000 M⁻¹
same,Binding constant for sugar chain No. 931,[1]; [4],<1000 M⁻¹
same,Binding constant for sugar chain No. 932,[1]; [4],<1000 M⁻¹
same,Binding constant for sugar chain No. 933,[1]; [4],<1000 M⁻¹
same,Binding constant for sugar chain No. 001,[1]; sugar chain having no fucose,<1000 M⁻¹
same,Binding constant for sugar chain No. 002,[1]; sugar chain having no fucose,<1000 M⁻¹
same,Binding constant for sugar chain No. 003,[1]; sugar chain having no fucose,7800 M⁻¹
same,Binding constant for sugar chain No. 004,[1]; sugar chain having no fucose,<1000 M⁻¹
same,Binding constant for sugar chain No. 005,[1]; sugar chain having no fucose,7400 M⁻¹
same,Binding constant for sugar chain No. 006,[1]; sugar chain having no fucose,7100 M⁻¹
same,Binding constant for sugar chain No. 007,[1]; sugar chain having no fucose,7800 M⁻¹
same,Binding constant for sugar chain No. 008,[1]; sugar chain having no fucose,10000 M⁻¹
same,Binding constant for sugar chain No. 009,[1]; sugar chain having no fucose,7900 M⁻¹
same,Binding constant for sugar chain No. 010,[1]; sugar chain having no fucose,<1000 M⁻¹
same,Binding constant for sugar chain No. 011,[1]; sugar chain having no fucose,<1000 M⁻¹
same,Binding constant for sugar chain No. 012,[1]; sugar chain having no fucose,17000 M⁻¹
same,Binding constant for sugar chain No. 013,[1]; sugar chain having no fucose,<1000 M⁻¹
same,Binding constant for sugar chain No. 014,[1]; sugar chain having no fucose,8600 M⁻¹
same,Binding constant for sugar chain No. 101,[1]; sugar chain having no fucose,<1000 M⁻¹
same,Binding constant for sugar chain No. 103,[1]; sugar chain having no fucose,<1000 M⁻¹
same,Binding constant for sugar chain No. 104,[1]; sugar chain having no fucose,<1000 M⁻¹
same,Binding constant for sugar chain No. 105,[1]; sugar chain having no fucose,<1000 M⁻¹
same,Binding constant for sugar chain No. 107,[1]; sugar chain having no fucose,<1000 M⁻¹
same,Binding constant for sugar chain No. 108,[1]; sugar chain having no fucose,<1000 M⁻¹
same,Binding constant for sugar chain No. 301,[1]; sugar chain having no fucose,<1000 M⁻¹
same,Binding constant for sugar chain No. 304,[1]; sugar chain having no fucose,<1000 M⁻¹
same,Binding constant for sugar chain No. 305,[1]; sugar chain having no fucose,<1000 M⁻¹
same,Binding constant for sugar chain No. 307,[1]; sugar chain having no fucose,2400 M⁻¹
same,Binding constant for sugar chain No. 308,[1]; sugar chain having no fucose,<1000 M⁻¹
same,Binding constant for sugar chain No. 313,[1]; sugar chain having no fucose,<1000 M⁻¹
same,Binding constant for sugar chain No. 314,[1]; sugar chain having no fucose,<1000 M⁻¹
same,Binding constant for sugar chain No. 323,[1]; sugar chain having no fucose,<1000 M⁻¹
same,Binding constant for sugar chain No. 501,[1]; sugar chain having no fucose,<1000 M⁻¹
same,Binding constant for sugar chain No. 502,[1]; sugar chain having no fucose,<1000 M⁻¹
same,Binding constant for sugar chain No. 503,[1]; sugar chain having no fucose,<1000 M⁻¹
same,Binding constant for sugar chain No. 504,[1]; sugar chain having no fucose,<1000 M⁻¹
same,Binding constant for sugar chain No. 701,[1]; sugar chain having no fucose,<1000 M⁻¹
same,Binding constant for sugar chain No. 702,[1]; sugar chain having no fucose,<1000 M⁻¹
same,Binding constant for sugar chain No. 703,[1]; sugar chain having no fucose,<1000 M⁻¹
same,Binding constant for sugar chain No. 704,[1]; sugar chain having no fucose,<1000 M⁻¹
same,Binding constant for sugar chain No. 705,[1]; sugar chain having no fucose,<1000 M⁻¹
same,Binding constant for sugar chain No. 706,[1]; sugar chain having no fucose,<1000 M⁻¹
same,Binding constant for sugar chain No. 707,[1]; sugar chain having no fucose,<1000 M⁻¹
same,Binding constant for sugar chain No. 708,[1]; sugar chain having no fucose,<1000 M⁻¹
same,Binding constant for sugar chain No. 709,[1]; sugar chain having no fucose,<1000 M⁻¹
same,Binding constant for sugar chain No. 710,[1]; sugar chain having no fucose,<1000 M⁻¹
same,Binding constant for sugar chain No. 711,[1]; sugar chain having no fucose,<1000 M⁻¹
same,Binding constant for sugar chain No. 712,[1]; sugar chain having no fucose,<1000 M⁻¹
same,Binding constant for sugar chain No. 713,[1]; sugar chain having no fucose,<1000 M⁻¹
same,Binding constant for sugar chain No. 715,[1]; sugar chain having no fucose,<1000 M⁻¹
same,Binding constant for sugar chain No. 716,[1]; sugar chain having no fucose,<1000 M⁻¹
same,Binding constant for sugar chain No. 717,[1]; sugar chain having no fucose,<1000 M⁻¹
same,Binding constant for sugar chain No. 724,[1]; sugar chain having no fucose,<1000 M⁻¹
same,Binding constant for sugar chain No. 725,[1]; sugar chain having no fucose,<1000 M⁻¹
same,Binding constant for sugar chain No. 732,[1]; sugar chain having no fucose,<1000 M⁻¹
same,Binding constant for sugar chain No. 733,[1]; sugar chain having no fucose,<1000 M⁻¹
same,Binding constant for sugar chain No. 734,[1]; sugar chain having no fucose,<1000 M⁻¹
same,Binding constant for sugar chain No. 735,[1]; sugar chain having no fucose,<1000 M⁻¹
same,Binding constant for sugar chain No. 736,[1]; sugar chain having no fucose,<1000 M⁻¹
same,Binding constant for sugar chain No. 737,[1]; sugar chain having no fucose,<1000 M⁻¹
same,Binding constant for sugar chain No. 738,[1]; sugar chain having no fucose,<1000 M⁻¹
same,Binding constant for sugar chain No. 901,[1]; sugar chain having no fucose,<1000 M⁻¹
same,Binding constant for sugar chain No. 902,[1]; sugar chain having no fucose,<1000 M⁻¹
same,Binding constant for sugar chain No. 903,[1]; sugar chain having no fucose,<1000 M⁻¹
same,Binding constant for sugar chain No. 905,[1]; sugar chain having no fucose,<1000 M⁻¹
same,Binding constant for sugar chain No. 906,[1]; sugar chain having no fucose,<1000 M⁻¹
same,Binding constant for sugar chain No. 907,[1]; sugar chain having no fucose,<1000 M⁻¹
same,Binding constant for sugar chain No. 015,[1]; sugar chain having α1→6 fucose,120000 M⁻¹
same,Binding constant for sugar chain No. 201,[1]; sugar chain having α1→6 fucose,100000 M⁻¹
same,Binding constant for sugar chain No. 202,[1]; sugar chain having α1→6 fucose,44000 M⁻¹
same,Binding constant for sugar chain No. 203,[1]; sugar chain having α1→6 fucose,25000 M⁻¹
same,Binding constant for sugar chain No. 401,[1]; sugar chain having α1→6 fucose,92000 M⁻¹
same,Binding constant for sugar chain No. 402,[1]; sugar chain having α1→6 fucose,48000 M⁻¹
same,Binding constant for sugar chain No. 403,[1]; sugar chain having α1→6 fucose,38000 M⁻¹
same,Binding constant for sugar chain No. 404,[1]; sugar chain having α1→6 fucose,45000 M⁻¹
same,Binding constant for sugar chain No. 405,[1]; sugar chain having α1→6 fucose,36000 M⁻¹
same,Binding constant for sugar chain No. 406,[1]; sugar chain having α1→6 fucose,13000 M⁻¹
same,Binding constant for sugar chain No. 407,[1]; sugar chain having α1→6 fucose,<1000 M⁻¹
same,Binding constant for sugar chain No. 410,[1]; sugar chain having α1→6 fucose,<1000 M⁻¹
same,Binding constant for sugar chain No. 413,[1]; sugar chain having α1→6 fucose,<1000 M⁻¹
same,Binding constant for sugar chain No. 418,[1]; sugar chain having α1→6 fucose,<1000 M⁻¹
same,Binding constant for sugar chain No. 601,[1]; sugar chain having α1→6 fucose,31000 M⁻¹
same,Binding constant for sugar chain No. 602,[1]; sugar chain having α1→6 fucose,29000 M⁻¹
same,Binding constant for sugar chain No. 728,[2],<1000 M⁻¹
same,binding to sugar chain excluding the α1→6 fucose (in words),"[3]; sugar chains No. 003, and 005 to 014 for LCL and PSL",bind
same,binding to the fucose α1→6 sugar chains (in words),"[3]; sugar chains No. 015, 201 to 203, and 401 to 418",bind

# From US20200264182A1, “METHOD FOR DETECTING PROSTATE CANCER” (J-OIL MILLS, INC., priority 2017, published 2020)
